The data set has as its system MS2 coat protein. Put plainly: apparent KD of MS2 coat protein; designed switch direction (-1 OFF switch, 1 ON switch): -1; higher = weaker reporter binding. In short, it runs like this: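 Designed RNA switches were transcribed on Illumina chips by stalled E. coli RNA polymerase and titrated with SNAP-549-labelled MS2 coat protein from 0.7 or 1.5 nM, doubling to 3 µM. Step length ran from 0.8–1.5 h at the lowest concentration to 10–20 min at the highest. The apparent KD is the median over clusters for each design, from curve-fitted normalised cluster fluorescence.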

Setting [1] is: Eterna round: R95, input ligand: microRNA oligo, concentration not stated.
[2] abbreviates: Eterna round: R95, input ligand: FMN 200 uM.
Where [3] appears, read: Eterna round: R95, input ligand: none.
Where [4] appears, read: input ligand: microRNA oligo, concentration not stated.

With “AAAAUACAUGAGGAUCACCCAUGUGAGGAUAUGAGAGUCAUUUAUAUAUAUUAGAUUCUCAGAAGGCACAUAAA [JR_Ex1_Sub068] (Eterna round: R97, puzzle: Exclusion 1)”, the “apparent KD of MS2 coat protein” value (input ligand: FMN 200 uM) came out at 0.211 µM and the “apparent KD of MS2 coat protein” value (input ligand: none) was 0.0537 µM.
“AAAAUGUCAGGAUAUUGUUAGUUUAGUUGUUUGUAUUAGUUCGAGAAGGGACAUGAGGAUCACCCAUGUUAAAA [Ex4 #67] (Eterna round: R97, puzzle: Exclusion 4)”: the “apparent KD of MS2 coat protein” value is 0.0457 µM (input ligand: FMN 200 uM) and 0.0299 µM (input ligand: none).
Regarding “AAAAUGUGAGGAUAUCAGGUGUGCUAGCGAACUGGUACAUCUGAGAAGGCACAUGAGGAUCACCCAUGUUCCUU [Mat - Exclusion 4 - Mod of JL - D51] (puzzle: Exclusion 4)”, the “apparent KD of MS2 coat protein” value under setting [1] is 0.0162 µM.
Turning to “AAACAGCAAGGAUAUACGGGCUGUGCUUUUCAUUUCAUACAACAUGAGGAUCACCCAUGUAGAAGGUGCAACAA [Ex2 #4] (Eterna round: R97, puzzle: Exclusion 2)”, the “apparent KD of MS2 coat protein” value is, setting by setting: (input ligand: FMN 200 uM) 0.125 µM; (input ligand: none) 0.0343 µM.
With “AAACAGCAAGGAUAUACGGGCUGUGCUUUUCAUUUCUUACAACAUGAGGAUCACCCAUGUAGAAGGUGCAACAA [Ex2 #5] (Eterna round: R97, puzzle: Exclusion 2)”, the “apparent KD of MS2 coat protein” value reads like this: (input ligand: FMN 200 uM) 0.0804 µM; (input ligand: none) 0.0245 µM.
“AAACCCUGAGGAUAUAGAUAACAACAAAGCCUCACGUGCCAACAUGAGGAUCACCCAUGUAGAAGGCAGGCCAA [Mod R3 Insanara 4 - Jieux - Exclusion 2] (Eterna round: R97, puzzle: Exclusion 2)”: the “apparent KD of MS2 coat protein” value by setting is: (input ligand: FMN 200 uM) 0.0147 µM; (input ligand: none) 0.0172 µM.
For “AAACCUGCCCAUGACCGCAAGCCUUUUGCUUGUCUUACCACAUGAGGAUCACCCAUGUGACAUGGGCUCCUUAUAAA [Solabixe] (puzzle: Sensor v3, turn-off variant 2)”, the “apparent KD of MS2 coat protein” value is, setting by setting: under setting [2], 0.0141 µM; under setting [1], 0.0105 µM; under setting [3], 0.0135 µM.
Turning to “AAACUCCUGACAACCAGGAACAUGAGGAUCACCCAUGUGGCGUGACUCAUACGGGCUUUUUGUUCGUUUUAUUCACG [Aleatxe] (puzzle: Sensor v3, turn-off variant 1)”, the “apparent KD of MS2 coat protein” value under setting [2] came out at 0.041 µM, the “apparent KD of MS2 coat protein” value under setting [1] was determined as 0.0266 µM and the “apparent KD of MS2 coat protein” value under setting [3] was found to be 0.051 µM.
With “AAAGAAAAGAAAGGAUAUAGCGCAGAACCGCAGCUAGAAGGUUCGGUGGGUAUCCUGUAACAUGAGGAUCACCCAUGUAAAGAG [Tire] (Eterna round: R96, puzzle: Exclusion NG 1)”, the “apparent KD of MS2 coat protein” value (input ligand: FMN 200 uM) turned out to be 0.0699 µM, the “apparent KD of MS2 coat protein” value under setting [4] stood at 0.0487 µM and the “apparent KD of MS2 coat protein” value (input ligand: none) is 0.0557 µM.
For “AAAGAUGGAGGAUAUACAUGAGGAUCACCCAUGUAGAAAAAAAAUUGGGAAAAAGAAAGUAGAAGGCCAAAAAA [Ex 3 May 43] (Eterna round: R96, puzzle: Exclusion 3)”, the “apparent KD of MS2 coat protein” value (input ligand: FMN 200 uM) came to 0.0676 µM, the “apparent KD of MS2 coat protein” value under setting [4] was determined as 0.0256 µM and the “apparent KD of MS2 coat protein” value (input ligand: none) was 0.0365 µM.
Take “AAAGGAGUAGGAUAUGAGCCCAAAUACAUGAGGAUCACCCAUGUCGGGUUCAUGGAGGGCUUAGAAGGAUUUAAAA [Onreridi] (Eterna round: R97, puzzle: Exclusion 5)”: the “apparent KD of MS2 coat protein” value (input ligand: FMN 200 uM) was found to be 0.0258 µM and the “apparent KD of MS2 coat protein” value (input ligand: none) is 0.0231 µM.
As to “AAAGGGUGAGGAUAUCCAUCUGGAUCAGACUAGAUCCUGAUGGAGAAGGCACAUGAGGAUCACCCAUGUGAGUU [Eli 4x 4.33] (Eterna round: R97, puzzle: Exclusion 4)”, the “apparent KD of MS2 coat protein” value is, setting by setting: (input ligand: FMN 200 uM) 0.112 µM; (input ligand: none) 0.0992 µM.
As to “AAAGUCCUAGGAGGAUAUCACCUGCCUAGCACAUGAGAAGGCCUAGGAGACAUGAGGAUCACCCAUGUGUCCUUAGUCGAAAAU [Ensobedi] (Eterna round: R96, puzzle: Exclusion NG 1)”, the “apparent KD of MS2 coat protein” value was determined as 0.0195 µM (input ligand: FMN 200 uM), 0.00959 µM under setting [4] and 0.0132 µM (input ligand: none).
As for “AAAGUUGCCUACGGUGUGCACAUGAGGAUCACCCAUGUACCUCCAUGGCAGUGCCAAUAAUUAUGCUCGUCACUACA [Eternabot (L1) Solution 18] (Eterna round: R97, puzzle: Sensor, turn-off variant 1)”, the “apparent KD of MS2 coat protein” value was 0.0149 µM (input ligand: FMN 200 uM) and 0.0142 µM (input ligand: none).
As for “AAAUAAACAAGCAACUCGAACAUGAGGAUCACCCAUGUAAAGGGUGAAUCGUCCACCCAAAAAAAAAAUAAAAAAAA [Mat - Sensor v2 - Eli mod - 132] (Eterna round: R96, puzzle: Sensor v2, turn-off variant)”, the “apparent KD of MS2 coat protein” value was found to be 0.0577 µM (input ligand: FMN 200 uM), 0.116 µM under setting [4] and 0.0559 µM (input ligand: none).
“AAAUAACAAGCAGGAUCCUACAUGAGGAUCACCCAUGUGCUCGUCUUAUAAAGUACUAUCACGAAAGUGAUAGUACU [Mat - Sensor v3 - turn-off var 1 - Eli Mod - D72] (puzzle: Sensor v3, turn-off variant 1)”: the “apparent KD of MS2 coat protein” value is, setting by setting: under setting [2], 0.153 µM; under setting [1], 0.093 µM; under setting [3], 0.156 µM.

For the origin of these results see the supplement of paper PMC9170038.
